Reference: patent US20200291118A1 (HANX BIOPHARMACEUTICS, published 2020)

How the values were obtained:
hPD-1-hIgGFc antigen [1] = target: T1, hPD-1-hIgGFc antigen (human, UniProt Q15116 25-167, limits assumed); experiment: competition ELISA on coated hPD-1-hIgGFc; competitor PD-L2-his tag
T1 construct: not shown: human IgG Fc
Method: A 96-well ELISA plate was coated with hPD-1-hIgGFc antigen at a concentration of 1.0 μg/ml (100 μl per well) by incubation at 4° C. overnight.
After the 96-well ELISA plate was washed with the PBST buffer for five times and gently patted to dryness, HRP conjugated anti-his tag mouse monoclonal antibody as a secondary antibody in 1:750 dilution (50 μl per well) was added for incubation at 37° C. for 1 hour.

hPD-1-his antigen [2] = target: T2, hPD-1-his antigen (human, UniProt Q15116 25-167, limits assumed); experiment: ELISA on coated hPD-1-his; antibody 1:5 of 2 µg/ml
T2 construct: Coating antigen; not shown: his tag
T2 sequence (Q15116 25-167 limits assumed): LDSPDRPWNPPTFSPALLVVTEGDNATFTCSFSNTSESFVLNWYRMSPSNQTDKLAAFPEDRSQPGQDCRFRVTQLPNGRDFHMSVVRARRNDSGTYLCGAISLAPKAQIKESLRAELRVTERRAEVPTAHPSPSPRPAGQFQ
Method: (§1) An ELISA plate was coated with hPD-1-his antigen at a concentration of 0.25 μg/ml (100 μl per well) by incubation at 4° C. overnight.
(§2) The ELISA plate coated with the hPD-1-his antigen was blocked with 1% BSA (diluted in the PBS buffer) at 37° C. for 2 hours, and then washed with 1×PBST buffer containing 1% Tween-20 for three times, with gently patting to dryness.
(§3) The absorbance of solution in each well was measured on a microplate reader under a wavelength of 450 nm.

hPD-1-his antigen [3] = target: T2, hPD-1-his antigen; experiment: ELISA on coated hPD-1-his
Method: as §1, §2, §3

hPD-1-hIgGFc antigen [4] = target: T1, hPD-1-hIgGFc antigen; experiment: competition ELISA on coated hPD-1-hIgGFc; competitor PD-L1-mIgG2aFc
Method: A 96-well ELISA plate was coated with hPD-1-hIgGFc antigen at a concentration of 0.5 μg/ml (50 μl per well) by incubation at 4° C. overnight.

T1 sequence (Q15116 25-167 limits assumed): as above

- IC50 (hPD-1-hIgGFc antigen [1]): 2.7 nM
- absorbance at 450 nm (hPD-1-his antigen [2]): 1.76
- EC50 (hPD-1-his antigen [3]): 0.05 nM
- IC50 (hPD-1-hIgGFc antigen [4]): 1 nM
B1: humanized antibody H8 (anti-PD-1 IgG antibody) (antibody, V domains shown)
VH: EVQLVQSGGGLVQPGGSLKLSCAASGFTFSSYGMSWVRQAPGKGLDWVATISGGGRDTYYPDSVKGRFTISRDNSKNNLYLQMNSLRAEDTALYYCARQKGEAWFAYWGQGTLVTVSA
VL: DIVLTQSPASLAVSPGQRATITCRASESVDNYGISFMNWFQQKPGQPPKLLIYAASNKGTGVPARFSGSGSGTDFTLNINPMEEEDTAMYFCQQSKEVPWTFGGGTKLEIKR
notes: also called HX008; HX008 18A10 antibody
